# B1: histidine-tagged Cbfβ (other)
# chain: HHHHHHMPRVVPDQRSKFENEEFFRKLSRECEIKYTGFRDRPHEERQTRFQNACRDGRSEIAFVATGTNLSLQFFPASWQGEQRQTPSREYVDLEREAGKVYLKAPMILNGVCVIWKGWIDLHRLDGMGCLEFDEERAQQEDALAQQAFEEARRRTREFEDRDRSHREEMEARRQQDPSPGSNLGGGDDLKLR
# notes: Recombinant Cbfβ added in EMSA; also called Cbf]3
# Legend:
# [1] = target: T1, histidine-tagged recombinant Osf2/Cbfa1 polypeptide (His-Osf2/Cbfa1) (mouse, UniProt Q08775 80-607); test: EMSA with labeled OSE2 oligonucleotide, with or without Cbfβ
# T1 construct: Bacterially expressed, enriched on Ni resin; also called His-tagged Osf2/Cbfa1 polypeptide
# T1 sequence (Q08775 other isoform, or with tags, fused parts or gaps): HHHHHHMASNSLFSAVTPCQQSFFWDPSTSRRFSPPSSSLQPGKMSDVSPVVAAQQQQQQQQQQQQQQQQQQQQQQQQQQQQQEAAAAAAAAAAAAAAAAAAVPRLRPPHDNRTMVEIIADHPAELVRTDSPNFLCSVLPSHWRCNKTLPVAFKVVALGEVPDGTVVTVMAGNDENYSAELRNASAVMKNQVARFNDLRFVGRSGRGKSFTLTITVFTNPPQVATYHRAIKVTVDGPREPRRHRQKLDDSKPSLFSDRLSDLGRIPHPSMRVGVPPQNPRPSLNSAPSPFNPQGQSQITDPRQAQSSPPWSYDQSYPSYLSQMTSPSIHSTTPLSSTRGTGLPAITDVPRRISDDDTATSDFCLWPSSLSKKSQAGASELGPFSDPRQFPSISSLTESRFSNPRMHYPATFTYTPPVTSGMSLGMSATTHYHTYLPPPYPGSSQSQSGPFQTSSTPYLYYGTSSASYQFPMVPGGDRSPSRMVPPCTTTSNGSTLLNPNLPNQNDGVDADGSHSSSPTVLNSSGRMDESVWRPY
# Method: (§1) DNA-binding assays were performed with 5 fmol of ^32P-labeled double-stranded OSE2 oligonucleotides, in a buffer containing 20 mM Tris-HCl, pH 8.0, 10 mM NaCl, 3 mM EGTA, 0.05% NP-40, 5 mM DTT, and 2 μg of poly (dI.dC).poly (dI.dC), with equivalent amounts of wild type or mutant proteins. […] Typically, 100 ng of fusion protein bound to glutathione-agarose beads was used for each assay, while the amount of labeled protein in the assay was determined using fluorography.
# [2] = target: T2, ΔN19.1.1 deletion mutant of Osf2 (His-tagged) (mouse, UniProt Q08775 99-607); test: as above
# T2 construct: counted with Met69 of the cDNA as residue 1
# T2 sequence (Q08775 other isoform, or with tags, fused parts or gaps mutant): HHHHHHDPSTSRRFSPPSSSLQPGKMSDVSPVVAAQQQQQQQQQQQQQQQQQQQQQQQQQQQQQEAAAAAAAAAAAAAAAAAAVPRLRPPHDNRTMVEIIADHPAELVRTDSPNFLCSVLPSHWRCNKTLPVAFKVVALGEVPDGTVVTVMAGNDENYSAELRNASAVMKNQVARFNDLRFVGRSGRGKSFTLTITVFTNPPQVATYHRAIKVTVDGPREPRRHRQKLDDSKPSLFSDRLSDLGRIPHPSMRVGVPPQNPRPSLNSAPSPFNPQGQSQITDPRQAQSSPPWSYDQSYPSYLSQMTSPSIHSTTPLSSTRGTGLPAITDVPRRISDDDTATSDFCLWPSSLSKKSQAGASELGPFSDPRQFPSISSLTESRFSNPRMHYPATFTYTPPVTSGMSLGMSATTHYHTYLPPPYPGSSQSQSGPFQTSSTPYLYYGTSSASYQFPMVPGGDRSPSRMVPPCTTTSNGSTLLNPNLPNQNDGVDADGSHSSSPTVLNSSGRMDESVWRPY
# Method: as §1
binder,measurement,setting,value
B1,binding result,[1],no binding
same,binding result,[2],no binding

# Source: US6518063 (University of Texas, dated 1998)
